Measured values published in article PMC4874933.
No end group written: not given here.

Target: fibrils composed of synthetic human λ6 variable domain (rVλ6Wil) (human)
Test: co-sedimentation

- % bound: 58%
B1: Tc-99m labeled GGGY-p5+14 peptide (peptide)
peptide: GGGYSKAQKAQAKQAKQAQKAQKAQAKQAKQAQKAQKAQAKQAKQA
modifications: also: Tc-99m label coupled directly, site not characterised
